From patent US5847088A, “Antibodies specific for platelet-activating factor acetylhydrolase” (ICOS Corporation, priority 1995, dated 1998)

Test system: PAF-induced foot edema
Test: Rat foot edema model, PAF-induced
Format: in vivo
Method: Six to eight-week-old female Long Evans rats (Charles River, Wilmington, Mass.), weighing 180-200 grams, were used for all experiments. Prior to experimental manipulations, animals were anesthetized with a mixture of the anesthetics Ketaset (Fort Dodge Laboratories, Fort Dodge, Iowa), Rompun (Miles, Shawnee Mission, Kans.), and Ace Promazine (Aveco, Fort Dodge, Iowa) administered subcutaneously at approximately 2.5 mg Ketaset, 1.6 mg Rompun, 0.2 mg Ace Promazine per animal per dose. Edema was induced in the foot by administration of either PAF or zymosan as follows. PAF (Sigma #P-1402) was freshly prepared for each experiment from a 19.1 mM stock solution stored in chloroform/methanol (9:1) at -20° C. Required volumes were dried down under N2, diluted 1:1000 in a buffer containing 150 mM NaCl, 10 mM Tris pH 7.5, and 0.25% BSA, and sonicated for five minutes. Animals received 50 μl PAF (final dose of 0.96 nmoles) subcutaneously between the hind foot pads, and edema was assessed after 1 hour and again after 2 hours in some experiments. Zymosan A (Sigma #A-8800) was freshly prepared for each experiment as a suspension of 10 mg/ml in PBS. Animals received 50 μl of zymosan (final dose of 500 μg) subcutaneously between the hind foot pads and edema was assessed after 2 hours.
Edema was quantitated by measuring the foot volume immediately prior to administration of PAF or zymosan and at indicated time point post-challenge with PAF or zymosan. Edema is expressed as the increase in foot volume in milliliters. Volume displacement measurements were made on anesthetized animals using a plethysmometer (UGO Basile, model #7150) which measures the displaced water volume of the immersed foot. […] Repeated measurements of the same foot using this technique indicate the precision to be within 5%.
PAF-AH was injected locally between the foot pads, or systematically by IV injection in the tail vein. For local administration rats received 100 μl PAF-AH (4000-6000 U/ml) delivered subcutaneously between the right hind foot pads. Left feet served as controls by administration of 100 μl carrier (buffered salt solution). For systemic administration of PAF-AH, rats received the indicated units of PAF-AH in 300 μl of carrier administered IV in the tail vein. Controls received the appropriate volume of carrier IV in the tail vein.

B1: PAF-AH: Recombinant human plasma platelet-activating factor acetylhydrolase (beginning at Ile42 of SEQ ID NO:8) expressed in E. coli (protein, UniProt Q13093 22-441, looked up)
Platelet-activating factor …: FDWQYINPVAHMKSSAWVNKIQVLMAAASFGQTKIPRGNGPYSVGCTDLMFDHTNKGTFLRLYYPSQDNDRLDTLWIPNKEYFWGLSKFLGTHWLMGNILRLLFGSMTTPANWNSPLRPGEKYPLVVFSHGLGAFRTLYSAIGIDLASHGFIVAAVEHRDRSASATYYFKDQSAAEIGDKSWLYLRTLKQEEETHIRNEQVRQRAKECSQALSLILDIDHGKPVKNALDLKFDMEQLKDSIDREKIAVIGHSFGGATVIQTLSEDQRFRCGIALDAWMFPLGDEVYSRIPQPLFFINSEYFQYPANIIKMKKCYSPDKERKMITIRGSVHQNFADFTFATGKIIGHMLKLKGDIDSNVAIDLSNKASLAFLQKHLGLHKDFDQWDCLIEGDDENLIPGTNINTTNQHIMLQNSSGIEKYN
2000 U IV 15 minutes before PAF, 1 hour, ± SEM (FIG. 6)
  mean increase in volume (foot edema): 0.08 ± 0.02 mL
2000 U IV 15 minutes prior to PAF, two hours after challenge, ± SEM
  mean volume increase (foot edema): 0.10 mL
IV 15 minutes prior to PAF, edema after 1 hour
  ID50: 40-80 U per rat
IV dosing studies
  IV doses found to dramatically reduce PAF mediated inflammation: 160-2000 U/rat
PAF-AH 2000 U IV, CV3988 or Alprazolam 2 mg IP (FIG. 10)
  PAF-induced edema, PAF-AH versus PAF antagonists: reduction in PAF-induced edema beyond that afforded by the established PAF antagonists
Calculated from plasma volume of 180-200 gram rats
  plasma concentration predicted to block PAF-elicited edema: 25-40 U/ml
Local subcutaneous 100 μl PAF-AH (4000-6000 U/ml), immediate PAF challenge, 1 hour post-challenge, mean ± SEM
  increase in foot volume: 0.08 mL
Single 2000 U IV dose
  duration of protection from PAF induced edema: at least 24 hours
